Data as given in paper PMC6131487.

Key:
[1] = target: UL25 of HSV-2 (component of the capsid-vertex-specific component, CVSC) (herpes simplex virus 2 strain MS) (UniProt P89448); assay: cryo-EM structure; HSV-2 (MS strain) C-capsids assembled in infected Vero cells, detergent-treated (1% NP-40) and purified on sucrose gradients, in PBS; icosahedral plus block-based reconstruction, 3.75 Å overall (CVSC map 4.3 Å, CVSC head about 10 Å)
[2] = target: small capsid protein VP26 of HSV-2 (herpes simplex virus 2 strain MS) (UniProt P89458); assay: as above

Substance “UL25 of HSV-2 (component of the capsid-vertex-specific component, CVSC) (from UniProt P89448 1-585) (natural protein)” has a stoichiometry N [1] of 2.

Work on “small capsid protein VP26 of HSV-2 (from UniProt P89458 1-112) (natural protein)” yielded a stoichiometry N [2] of 6.
